Article PMC12605528, “A bifunctional peptide–selenium nanocomposite for lysosomal degradation of PD-L1 and enhanced cancer immunotherapy” (Frontiers in Immunology, 2025)

Legend:
PD-L1 [1] = target: T1, PD-L1 (Homo sapiens, UniProt Q9NZQ7); experiment: ITC; MicroCal iTC200, 25 °C, PBS pH 7.4; peptide at 500 μM in the syringe, PD-L1 or HSC70 at 2.5 μM in the sample chamber; 20 injections of 2 μL
Target sequence in this assay (Q9NZQ7 19-290): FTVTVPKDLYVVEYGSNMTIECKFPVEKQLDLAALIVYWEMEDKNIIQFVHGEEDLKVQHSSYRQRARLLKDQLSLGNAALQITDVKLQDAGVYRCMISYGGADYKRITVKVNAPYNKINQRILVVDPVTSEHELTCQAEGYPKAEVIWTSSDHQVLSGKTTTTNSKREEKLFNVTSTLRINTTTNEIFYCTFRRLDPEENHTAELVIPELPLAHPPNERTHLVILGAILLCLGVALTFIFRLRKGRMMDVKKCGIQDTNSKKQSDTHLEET

HSC70 [2] = target: T2, HSC70 (Homo sapiens, UniProt P11142); experiment: as above
Target sequence in this assay (P11142 whole entry): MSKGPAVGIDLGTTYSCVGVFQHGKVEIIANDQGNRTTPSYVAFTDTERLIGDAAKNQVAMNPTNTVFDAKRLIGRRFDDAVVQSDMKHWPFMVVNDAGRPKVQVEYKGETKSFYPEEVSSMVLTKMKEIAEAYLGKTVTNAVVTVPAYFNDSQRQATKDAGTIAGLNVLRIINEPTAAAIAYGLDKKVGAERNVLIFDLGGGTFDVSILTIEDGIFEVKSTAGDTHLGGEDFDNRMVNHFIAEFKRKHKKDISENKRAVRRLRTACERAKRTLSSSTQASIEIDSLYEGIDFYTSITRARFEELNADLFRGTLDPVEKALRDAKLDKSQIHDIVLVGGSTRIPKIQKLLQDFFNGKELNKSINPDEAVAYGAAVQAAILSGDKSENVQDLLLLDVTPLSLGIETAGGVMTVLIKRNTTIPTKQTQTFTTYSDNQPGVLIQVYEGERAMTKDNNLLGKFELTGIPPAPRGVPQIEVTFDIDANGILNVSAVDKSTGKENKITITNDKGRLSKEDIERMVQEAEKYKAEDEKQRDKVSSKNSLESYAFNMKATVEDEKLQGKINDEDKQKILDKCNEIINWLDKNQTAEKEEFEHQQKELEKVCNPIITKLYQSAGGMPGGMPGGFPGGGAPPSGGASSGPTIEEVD

HSC70 [3] = target: T2, HSC70; experiment: Isothermal titration calorimetry (ITC), binding to HSC70; conditions: 25 °C, PBS pH 7.4, peptide 500 μM in syringe, protein 2.5 μM in cell, 20 injections of 2 μL
Protocol: (§1) Experiments were conducted at 25 °C on a MicroCal iTC200 isothermal titration calorimeter (GE Healthcare) in PBS buffer (pH 7.4). The titration syringe was loaded with peptide a or scrambled peptide prepared at 500 μM, while the sample chamber contained PD-L1 or HSC70 protein at 2.5 μM. The titration consisted of 20 successive injections of 2 μL each, with an equilibration interval of 120 seconds between injections. The average baseline value was calculated from data points obtained under saturation conditions. Following baseline correction, binding constants were determined using the fitting models provided in MicroCal Origin software.
Target sequence in this assay (P11142 whole entry, species assumed): as the sequence (P11142 whole entry) above

PD-L1 [4] = target: T1, PD-L1; experiment: Isothermal titration calorimetry (ITC), binding to PD-L1; conditions: 25 °C, PBS pH 7.4, peptide 500 μM in syringe, protein 2.5 μM in cell, 20 injections of 2 μL
Protocol: as §1
Target sequence in this assay (Q9NZQ7 19-290, species assumed): as the sequence (Q9NZQ7 19-290) above

Substance | Kd (PD-L1 [1]) | Kd (HSC70 [2]) | Kd, binding to HSC70 (HSC70 [3]) | Kd, binding to PD-L1 (PD-L1 [4])
bifunctional peptide a (CKFERQ-PEG3-nyskptdrqyhf) | 410 nM | 1280 nM |  | 
fhyqrdtpksyn-PEG3-QREFKC [mutant peptide with scrambled sequences] |  |  | no detectable binding | no detectable binding
